# From article PMC12439581 (mAbs, 2025)
# Where “and” joins values, the source holds several entries; their conditions need not be identical. Equal values may be shown once.
# What was measured:
# [1] = target: T1, biotinylated α-elapitoxin-Dpp2d from Dendroaspis polylepis (Dendroaspis polylepis (black mamba), UniProt C0HJD7); test: BLI; […]; association at pH 7.4, dissociation at pH 7.4; 1:1 global fit, […]; conditions: both partners purified
# [2] = target: T2, biotinylated α-cobratoxin from Naja kaouthia (Naja kaouthia, biotin through amine coupling (NHS-PEG4-Biotin), sites not stated); test: BLI; conditions: both partners purified
# T2 chain: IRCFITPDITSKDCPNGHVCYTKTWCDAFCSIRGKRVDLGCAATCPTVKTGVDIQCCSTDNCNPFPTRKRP
# [3] = target: T1, biotinylated α-elapitoxin-Dpp2d from …; test: BLI; […]; association at pH 7.4, dissociation at pH 5.5; 1:1 global fit; conditions: both partners purified
# [4] = target: T2, biotinylated α-cobratoxin from Naja …; test: BLI; conditions: both partners purified
# [5] = target: T3, biotinylated α-cobratoxin from Naja kaouthia (Naja kaouthia, UniProt P01391); test: DELFIA (dissociation-enhanced lanthanide fluorescence immunoassay); conditions: one partner purified
# [6] = target: T3, biotinylated α-cobratoxin from Naja …; test: BLI; conditions: both partners purified
# T1 sequence (C0HJD7 whole entry): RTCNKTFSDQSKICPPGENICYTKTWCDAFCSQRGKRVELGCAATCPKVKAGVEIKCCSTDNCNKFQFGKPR
binder,measurement,setting,value
"A01 Fab (Fab, V domains shown) VH: QVQLVQSGAEVKKPGSSVKVSCKASGGTFSSYAISWVRQAPGQGLEWMGGIIPIFGTANYAQKFQGRVTITADESTSTAYMELRSLRSDDTAVYYCARDNLGYCSGGSCYSDYYYYYMDVWGQGTLVTVSS VL: SYELTQPPSVSVAPGRTATITCEGDNIGQQIVHWYQQKPGQAPVAVISSDSDRPSGIPERFSGSNSGNTATLTISRVEAGDEADYYCQVWDSGSDHVVFGGGTKVTVL",kon,[1],84000 M⁻¹ s⁻¹
same,kon,[2],44000 M⁻¹ s⁻¹
same,koff,[3],0.00295 s⁻¹
"D11_Y49S scFv (scFv, V domains shown, source: E. coli BL21(DE3)) VH: QVQLVQSGAEVKKPGSSVKVSCKASGGTFSSYAISWVRQAPGQGLEWMGGIIPIFGTANYAQKFQGRVTITADESTSTAYMELRSLRSDDTAVYYCARDNLGYCSGGSCYSDYYYYYMDVWGQGTLVTVSS VL: NFMLTQPRSVSESPGKTVTISCTRSSGSIGSDYVHWYQQRPGSSPTTVISEDNQRPSGVPDRFSGSIDSSSNSASLTISGLKTEDEADYYCQSYDRSNHEVVFGGGTKLTVL",Kd,[4],48.8 nM
same,koff,[4],0.00195 s⁻¹ and 0.00416 s⁻¹
same,kon,[4],40000 M⁻¹ s⁻¹
"D11 scFv with C-terminal 6xHis-FLAG extension (scFv, V domains shown, also called original D11; source: E. coli BL21(DE3); culture supernatant (DELFIA); purified (HisTrap, SEC)) VH: QVQLVQSGAEVKKPGSSVKVSCKASGGTFSSYAISWVRQAPGQGLEWMGGIIPIFGTANYAQKFQGRVTITADESTSTAYMELRSLRSDDTAVYYCARDNLGYCSGGSCYSDYYYYYMDVWGQGTLVTVSS VL: NFMLTQPRSVSESPGKTVTISCTRSSGSIGSDYVHWYQQRPGSSPTTVIYEDNQRPSGVPDRFSGSIDSSSNSASLTISGLKTEDEADYYCQSYDRSNHEVVFGGGTKLTVL",pH 7.4/pH 5.8 ratio of toxin remaining bound (TRF signal),[5],~1.3
same,pH 7.4/pH 5.8 ratio of toxin remaining bound (fold-difference),[5],~1.2 fold
"E01 Fab (Fab, V domains shown) VH: QVQLVQSGAEVKKPGSSVKVSCKASGGTFSSYAISWVRQAPGQGLEWMGGIIPIFGTANYAQKFQGRVTITADESTSTAYMELRSLRSDDTAVYYCARDNLGYCSGGSCYSDYYYYYMDVWGQGTLVTVSS VL: NFMLTQPRSVSESPGKTVTISCTRSSGSIGSDYVHWYQQRPGSSPTTVIYEDNRRPSGVPDRFSGSIASSANSASLTISGLRPEDEADYYCQSYDSTTNHVVFGGGTKVTVL",binding result,[6],binds
"368_01_C05 Fab with the CDR-L3 glycosylation site at Asn95 removed (Fab, V domains shown, also called parent mAb; parental mAb) VH: QVQLVQSGAEVKKPGSSVKVSCKASGGTFSSYAISWVRQAPGQGLEWMGGIIPIFGTANYAQKFQGRVTITADESTSTAYMELRSLRSDDTAVYYCARDNLGYCSGGSCYSDYYYYYMDVWGQGTLVTVSS VL: NFMLTQPHSVSESPGKTVTISCTRSSGSIASTYVHWYQQRPGSAPTTVIYEDNQRPSGVPDRFSGSIDSSSNSASLTISGLKTEDEADYYCQSYDSSSGSVVFGGGTKLTVL",binding result,[6],binds
"G09 Fab (Fab, V domains shown) VH: QVQLVQSGAEVKKPGSSVKVSCKASGGTFSSYAISWVRQAPGQGLEWMGGIIPIFGTANYAQKFQGRVTITADESTSTAYMELRSLRSDDTAVYYCARDNLGYCSGGSCYSDYYYYYMDVWGQGTLVTVSS VL: SYELTQPPSVSVAPGRTATITCEGDNIGQQIVHWYRQKSDQAPVVVVYDGSRRPSGIPERFSGSNSGNTATLTISRVEAGDEADYYCQVWDITSDHVVFGGGTQLTVL",Kd,[1],1 ± 0.5 nM
same,koff,[1],0.00015 s⁻¹
same,kon,[1],156000 M⁻¹ s⁻¹
same,Kd,[2],4.2 ± 2.8 nM
same,kon,[2],71000 M⁻¹ s⁻¹
same,koff,[3],0.00035 s⁻¹
"A01 scFv (scFv, V domains shown) VH: QVQLVQSGAEVKKPGSSVKVSCKASGGTFSSYAISWVRQAPGQGLEWMGGIIPIFGTANYAQKFQGRVTITADESTSTAYMELRSLRSDDTAVYYCARDNLGYCSGGSCYSDYYYYYMDVWGQGTLVTVSS VL: SYELTQPPSVSVAPGRTATITCEGDNIGQQIVHWYQQKPGQAPVAVISSDSDRPSGIPERFSGSNSGNTATLTISRVEAGDEADYYCQVWDSGSDHVVFGGGTKVTVL",Kd,[4],52.2 nM
same,kon,[4],43200 M⁻¹ s⁻¹
"A01 scFv with C-terminal 6xHis-FLAG extension (scFv, V domains shown, also called original A01 scFv; source: E. coli BL21(DE3); culture supernatant (DELFIA); purified (HisTrap, SEC)) VH: QVQLVQSGAEVKKPGSSVKVSCKASGGTFSSYAISWVRQAPGQGLEWMGGIIPIFGTANYAQKFQGRVTITADESTSTAYMELRSLRSDDTAVYYCARDNLGYCSGGSCYSDYYYYYMDVWGQGTLVTVSS VL: SYELTQPPSVSVAPGRTATITCEGDNIGQQIVHWYQQKPGQAPVAVISSDSDRPSGIPERFSGSNSGNTATLTISRVEAGDEADYYCQVWDSGSDHVVFGGGTKVTVL",pH 7.4/pH 5.8 ratio of toxin remaining bound (TRF signal),[5],~12
same,pH 7.4/pH 5.8 ratio of toxin remaining bound (fold-difference),[5],~13.4 fold
"D11_E50A scFv (scFv, V domains shown, source: E. coli BL21(DE3)) VH: QVQLVQSGAEVKKPGSSVKVSCKASGGTFSSYAISWVRQAPGQGLEWMGGIIPIFGTANYAQKFQGRVTITADESTSTAYMELRSLRSDDTAVYYCARDNLGYCSGGSCYSDYYYYYMDVWGQGTLVTVSS VL: NFMLTQPRSVSESPGKTVTISCTRSSGSIGSDYVHWYQQRPGSSPTTVIYADNQRPSGVPDRFSGSIDSSSNSASLTISGLKTEDEADYYCQSYDRSNHEVVFGGGTKLTVL",Kd,[4],158 nM
same,koff,[4],0.00469 s⁻¹ and 0.0134 s⁻¹
same,kon,[4],29700 M⁻¹ s⁻¹
"A12 Fab (Fab, V domains shown) VH: QVQLVQSGAEVKKPGSSVKVSCKASGGTFSSYAISWVRQAPGQGLEWMGGIIPIFGTANYAQKFQGRVTITADESTSTAYMELRSLRSDDTAVYYCARDNLGYCSGGSCYSDYYYYYMDVWGQGTLVTVSS VL: NFMLTQPHSVSESPGKTVTFSCTRSSGRIVSDYVHWYQQRPGSAPTTVIYEDNQRPSGVPDRFSGSIDSSSNSASLTISGLKTEDEADYYCQSYDSSNAYVVFGGGTKVTVL",binding result,[6],binds
"D11_Y49A scFv (scFv, V domains shown, source: E. coli BL21(DE3)) VH: QVQLVQSGAEVKKPGSSVKVSCKASGGTFSSYAISWVRQAPGQGLEWMGGIIPIFGTANYAQKFQGRVTITADESTSTAYMELRSLRSDDTAVYYCARDNLGYCSGGSCYSDYYYYYMDVWGQGTLVTVSS VL: NFMLTQPRSVSESPGKTVTISCTRSSGSIGSDYVHWYQQRPGSSPTTVIAEDNQRPSGVPDRFSGSIDSSSNSASLTISGLKTEDEADYYCQSYDRSNHEVVFGGGTKLTVL",Kd,[4],68.8 nM
same,koff,[4],0.0018 s⁻¹ and 0.00355 s⁻¹
same,kon,[4],26200 M⁻¹ s⁻¹
"D11 scFv (scFv, V domains shown) VH: QVQLVQSGAEVKKPGSSVKVSCKASGGTFSSYAISWVRQAPGQGLEWMGGIIPIFGTANYAQKFQGRVTITADESTSTAYMELRSLRSDDTAVYYCARDNLGYCSGGSCYSDYYYYYMDVWGQGTLVTVSS VL: NFMLTQPRSVSESPGKTVTISCTRSSGSIGSDYVHWYQQRPGSSPTTVIYEDNQRPSGVPDRFSGSIDSSSNSASLTISGLKTEDEADYYCQSYDRSNHEVVFGGGTKLTVL",Kd,[4],44.4 nM
same,koff,[4],0.00177 s⁻¹ and 0.00189 s⁻¹
same,kon,[4],39900 M⁻¹ s⁻¹
"A01 scFv with His95b (CDR-L3) substituted to alanine (scFv, V domains shown, also called A01-H95bA; source: E. coli BL21(DE3), in culture supernatant) VH: QVQLVQSGAEVKKPGSSVKVSCKASGGTFSSYAISWVRQAPGQGLEWMGGIIPIFGTANYAQKFQGRVTITADESTSTAYMELRSLRSDDTAVYYCARDNLGYCSGGSCYSDYYYYYMDVWGQGTLVTVSS VL: SYELTQPPSVSVAPGRTATITCEGDNIGQQIVHWYQQKPGQAPVAVISSDSDRPSGIPERFSGSNSGNTATLTISRVEAGDEADYYCQVWDSGSDAVVFGGGTKVTVL",fold reduction of the pH 7.4/pH 5.8 ratio against the A01 scFv,[5],~3 fold
"A01 scFv with His34 (CDR-L1) substituted to alanine (scFv, V domains shown, also called A01-H34A; source: E. coli BL21(DE3), in culture supernatant) VH: QVQLVQSGAEVKKPGSSVKVSCKASGGTFSSYAISWVRQAPGQGLEWMGGIIPIFGTANYAQKFQGRVTITADESTSTAYMELRSLRSDDTAVYYCARDNLGYCSGGSCYSDYYYYYMDVWGQGTLVTVSS VL: SYELTQPPSVSVAPGRTATITCEGDNIGQQIVAWYQQKPGQAPVAVISSDSDRPSGIPERFSGSNSGNTATLTISRVEAGDEADYYCQVWDSGSDHVVFGGGTKVTVL",pH 7.4/pH 5.8 ratio of toxin remaining bound (TRF signal),[5],1.6
"C05 Fab, parental mAb 368_01_C05, with the N-glycosylation site of CDR-L3 removed (C05-NS) (Fab, V domains shown) VH: QVQLVQSGAEVKKPGSSVKVSCKASGGTFSSYAISWVRQAPGQGLEWMGGIIPIFGTANYAQKFQGRVTITADESTSTAYMELRSLRSDDTAVYYCARDNLGYCSGGSCYSDYYYYYMDVWGQGTLVTVSS VL: NFMLTQPHSVSESPGKTVTISCTRSSGSIASTYVHWYQQRPGSAPTTVIYEDNQRPSGVPDRFSGSIDSSSNSASLTISGLKTEDEADYYCQSYDSSSGSVVFGGGTKLTVL",Kd,[1],4.6 ± 0.47 nM
same,koff,[1],0.00034 s⁻¹
same,kon,[1],76000 M⁻¹ s⁻¹
same,Kd,[2],71.2 ± 5.4 nM
same,koff,[2],0.00366 s⁻¹ and 0.00946 s⁻¹
same,kon,[2],51000 M⁻¹ s⁻¹
same,koff,[3],0.00072 s⁻¹
"B11 Fab (Fab, V domains shown) VH: QVQLVQSGAEVKKPGSSVKVSCKASGGTFSSYAISWVRQAPGQGLEWMGGIIPIFGTANYAQKFQGRVTITADESTSTAYMELRSLRSDDTAVYYCARDNLGYCSGGSCYSDYYYYYMDVWGQGTLVTVSS VL: SYELTQPPSVSVAPGQTATITCGGHNIGSNIVHWYHQKPGQAPELVISHNTNRPSGIPERFSGSNSGSTATLTISRVEAVDEADYYCQVWDSSSEHVVFGGGTKVTVL",Kd,[1],1.4 ± 0.1 nM
same,koff,[1],9e-05 s⁻¹
same,kon,[1],69000 M⁻¹ s⁻¹
same,Kd,[2],5.7 ± 1.1 nM
same,kon,[2],59000 M⁻¹ s⁻¹
same,koff,[3],0.00049 s⁻¹
"A04 Fab (Fab, V domains shown) VH: QVQLVQSGAEVKKPGSSVKVSCKASGGTFSSYAISWVRQAPGQGLEWMGGIIPIFGTANYAQKFQGRVTITADESTSTAYMELRSLRSDDTAVYYCARDNLGYCSGGSCYSDYYYYYMDVWGQGTLVTVSS VL: SYELTQPPSMSVAPGQTARITCGGDYIGGESVHWYQQKPGRAPVAVVYDDTHRPSGIPERFSGANSGNTATLTISKVEAGDEADYYCQVWDVSSDHVVFGGGTKLTVL",Kd,[1],0.6 ± 0.4 nM
same,koff,[1],9e-05 s⁻¹
same,kon,[1],161000 M⁻¹ s⁻¹
same,Kd,[2],15.3 ± 14 nM
same,kon,[2],62000 M⁻¹ s⁻¹
same,koff,[3],0.00024 s⁻¹
